Data published in patent US20210308031.

Legend:
[1] = target: (Pro-Pro-Gly)10 peptide model substrate
[2] = target: Unhydroxylated collagen purified from strain PP434 (vector MMV411)

B1: P4HA and P4HB with the His tag, expressed separately (bidirectional), encoded by plasmid MMV503 (protein)
chain 1: HPGFFTSIGQMTDLIHTEKDLVTSLKDYIKAEEDKLEQIKKWAEKLDRLTSTATKDPEGFVGHPVNAFKLMKRLNTEWSELENLVLKDMSDGFISNLTIQRQYFPNDEDQVGAAKALLRLQDTYNLDTDTISKGDLPGVKHKSFLTVEDCFELGKVAYTEADYYHTELWMEQALRQLDEGEVSTVDKVSVLDYLSYAVYQQGDLDKALLLTKKLLELDPEHQRANGNLKYFEYIMAKEKDANKSSSDDQSDQKTTLKKKGAAVDYLPERQKYEMLCRGEGIKMTPRRQKKLFCRYHDGNRNPKFILAPAKQEDEWDKPRIIRFHDIISDAEIEVVKDLAKPRLRRATISNPITGDLETVHYRISKSAWLSGYENPVVSRINMRIQDLTGLDVSTAEELQVANYGVGGQYEPHFDFARKDEPDAFKELGTGNRIATWLFYMSDVLAGGATVFPEVGASVWPKKGTAVFWYNLFASGEGDYSTRHAACPVLVGNKWVSNKWLHERGQEFRRPCTLSELE
chain 2: APDEEDHVLVLHKGNFDEALAAHKYLLVEFYAPWCGHCKALAPEYAKAAGKLKAEGSEIRLAKVDATEESDLAQQYGVRGYPTIKFFKNGDTASPKEYTAGREADDIVNWLKKRTGPAASTLSDGAAAEALVESSEVAVIGFFKDMESDSAKQFFLAAEVIDDIPFGITSNSDVFSKYQLDKDGVVLFKKFDEGRNNFEGEVTKEKLLDFIKHNQLPLVIEFTEQTAPKIFGGEIKTHILLFLPKSVSDYEGKLSNFKKAAESFKGKILFIFIDSDHTDNQRILEFFGLKKEECPAVRLITLEEEMTKYKPESDELTAEKITEFCHRFLEGKIKPHLMSQELPDDWDKQPVKVLVGKNFEEVAFDEKKNVFVEFYAPWCGHCKQLAPIWDKLGETYKDHENIVIAKMDSTANEVEAVKVHSFPTLKFFPASADRTVIDYNGERTLDGFKKFLESGGQDGAGDDDDLEDLEEAEEPDLEEDDDQKAVKDELHHHHHH
[1]
  alpha-ketoglutaric acid consumption over time: The P4HA and P4HB enzymatic activity from PP548 were confirmed by the same assay as above
[2]
  % Hydroxyproline (in vitro hydroxylation, 32 C, 1 hour); enzyme from strain PP636: 0.9%
